The record followed here is US7815907B2, “Antibodies to insulin-like growth factor I receptor” (Amgen Fremont Inc., priority 2001, dated 2010).

Assay [1] has as its target T1, IGF-IR (Homo sapiens, UniProt P08069). As to the kind of experiment: IGF-IR levels in 3T3/IGF-IR tumors by western blot after antibody and/or adriamycin. The class given is in vivo, nude mice. Further details: expressed in transfected cells; host or cells: NIH-3T3 (mouse fibroblasts). To be noted: 72 hours after single 250 μg 2.13.2 i.p. or 7.5 mg/kg adriamycin i.v. The procedure: Tumors were induced in nude mice as described in Example IX. Mice with established subcutaneous tumors of approximately 400 mm^3 were treated with a single injection of 250 μg 2.13.2 antibody (i.p.) or with 7.5 mg/kg adriamycin (i.v.), either as single agents or in combination, as described in Example IX. 72 hours after administration of the agents, tumors were extracted as described in Example VIII, and equal amounts of the tumor extracts were subjected to sodium […] polyacrylamide gel electrophoresis (SDS PAGE) and western blot analysis using the anti-IGF-IR antibody SC-713 (Santa Cruz). […] Each lane represents equal amounts of protein from individual tumors from individual mice.

The target of assay [2] is T2, extracellular domain (ECD) of IGF-IR (Homo sapiens, UniProt P08069).
T2 construct: Different concentrations of the extracellular domain of IGF-IR were injected on the sensorchip
As to the kind of experiment: BIAcore competition (epitope mapping). Type of assay: binding. The settings on record: first antibody bound under saturating conditions. The source says: We conducted BIAcore competition studies to determine whether the antibodies of this invention bind to the same or distinct site on the IGF-IR molecule. We bound the extracellular domain (ECD) of IGF-IR to a BIAcore sensorchip as described above in Example II. We bound a first antibody of the invention to this sensorchip-bound IGF-IR under saturating conditions. We then measured the ability of subsequent secondary antibodies of the invention to compete with the primary antibody for binding to IGF-IR.
In general terms: Surface plasmon resonance follows binding to a sensor surface in real time, without labels.

Assay [3] has as its target T3, extracellular domain of IGF-IR (Homo sapiens, UniProt P08069).
T3 construct: Different concentrations of the extracellular domain of IGF-IR were injected on the sensorchip
As to the kind of experiment: BIAcore affinity measurement, Protocol 1. The class given is binding. To be noted: BIAcore 3000; antibody captured on protein-A, IGF-IR extracellular domain injected. How it is done:
We performed affinity measures of purified antibodies by surface plasmon resonance using the BIAcore 3000 instrument, following the manufacturer's protocols.
To perform kinetic analyses, protein-A was immobilized on the sensorchip surfaces of the BIAcore. The sensorchip was then used to capture the anti-IGF-IR antibodies of the present invention. Different concentrations of the extracellular domain of IGF-IR were injected on the sensorchip and the binding and dissociation kinetics of the interactions between the anti-IGF-IR antibodies and the extracellular domain of IGF-IR were analyzed. The data were evaluated with global fit Langmuir 1:1, using baseline drift models available on the BIAevaluation software provided by BIAcore.

Another assay deals with COS7 IGF-IR. As to the kind of experiment: Species crossreactivity by immunoprecipitation/Western blot. Type of assay: binding, old world monkey. The settings on record: immunoprecipitation, antibody 1 μg/ml. How it is done: (§1) To perform immunoprecipitation experiments, we plated cells in DMEM high glucose media supplemented with L-glutamine (0.29 mg/ml), 10% heat-inactivated FBS, and 500 μg/ml each of geneticin, penicillin and streptomycin to 50% confluence in T25 flasks. We then added 100 μl of an antibody of the invention in Hank's buffered saline solution (HBSS; Gibco BRL) at a concentration of 1 μg/ml. We incubated the plates for 30 minutes at 37° C. in an incubator and then stimulated the cells with IGF-I at 100 ng/ml for 10 minutes at room temperature. We lysed the cells in RIPA buffer (Harlow and Lane, supra) and immunoprecipitated IGF-IR with 2 μg of pan-specific SC-713 anti-IGF-IR antibody (Santa Cruz) plus protein A agarose beads for 1 hour at 4° C. We pelleted the beads and wash three times with PBS/T (PBS+0.1% Tween-20) and then boiled the beads in 40 μl Laemmli buffer containing 5% βME.
(§2) The samples prepared as described above were then analyzed by Western blot. We loaded 12 μl of each sample per lane on 4-10% gradient Novex™ gels run with 1×MES buffer (Novex™). Gels were run at 150V for 1 hour or at 200V for approximately 30 minutes. We then transferred the gel to a membrane in Novex™ transfer buffer with 10% methanol either overnight at 100 mA or for 1-1.5 hours at 250 mA. […]
In general terms: A western blot detects proteins with antibodies after separation by electrophoresis.

The target of assay [4] is T1, IGF-IR. The assay is described as above. The settings on record: immunoprecipitation, antibody 1 μg/ml. Further details: on cells from a variety of animals; endogenous in cells. Type of assay: binding. The procedure:
as §1, §2

Another assay deals with Rhesus IGF-IR. The description is as above. Type of assay: binding. The settings on record: immunoprecipitation, antibody 1 μg/ml. The procedure:
as §1
(§3) The samples prepared as described above were then analyzed by Western blot. We loaded 12 μl of each sample per lane on 4-10% gradient Novex™ gels run with 1×MES buffer (Novex™). Gels were run at 150V for 1 hour or at 200V for approximately 30 minutes. We then transferred the gel to a membrane in Novex™ transfer buffer with 10% methanol either overnight at 100 mA or for 1-1.5 hours at 250 mA. We then allowed the membrane to dry completely and blocked at room temperature with TBS (Tris-buffered saline pH 8.0) containing Superblock (Pierce Chemical Co.). We added the IGF-IR blotting antibody SC713 (Santa Cruz) to detect immunoprecipitated IGF-IR.

A further assay deals with guinea pig IGF-IR. Described as above. To be noted: immunoprecipitation, antibody 1 μg/ml. Type of assay: binding. How it is done: as §1, §3
The subject of another assay is rabbit IGF-IR. The assay is described as above. The settings on record: immunoprecipitation, antibody 1 μg/ml. Type of assay: binding. The procedure: as §1, §3
Another assay deals with canine IGF-IR. Described as above. The class given is binding. The settings on record: immunoprecipitation, antibody 1 μg/ml. The procedure: as §1, §3
A further assay has as its system IGF-IR from the marmoset. Described as above. The settings on record: immunoprecipitation, antibody 1 μg/ml. Type of assay: binding. The procedure:
as §1, §3

For the molecule `COc1cccc2c1C(=O)c1c(O)c3c(c(O)c1C2=O)C[C@@](O)(C(=O)CO)C[C@@H]3O[C@H]1C[C@H](N)[C@H](O)[C@H](C)O1` [adriamycin, reference compound], the “IGF-IR levels in tumors, single agent” value on IGF-IR [1] is listed as “little effect on IGF-IR levels”.

B1: 2.14.3: human IgG2κ monoclonal antibody specific for IGF-IR from hybridoma 2.14.3 (ATCC PTA-2790) (antibody, V domains shown)
VH: GPGLVKPSETLSLTCTVSGGSISNYYWSWIRQPAGKGLEWIGRIYTSGSPNYNPSLKSRVTMSVDTSKNQFSLKLNSVTAADTAVYYCAVTIFGVVIIFDYWGQGTLVTVSS
VL: SSLSASVGDRVTFTCRASQDIRRDLGWYQQKPGKAPKRLIYAASRLQSGVPSRFSGSGSGTEFTLTISSLQPEDFATYYCLQHNNYPRTFGQGTEVEIIR
For B1, in [2], the “binding site on IGF-IR (competition between antibodies)” value is given as “bind to sites on IGF-IR that are different”. In addition, the dissociation constant Kd (as a rule, the free concentration of one partner at which half of the binding sites on the other are occupied at equilibrium, for simple one-to-one binding) in [3] worked out at 0.641 nM.

B2: 2.12.1: human IgG2κ monoclonal antibody specific for IGF-IR from hybridoma 2.12.1 (ATCC PTA-2792) (antibody)
heavy: QAQLVESGGGLVKPGGSLRLSCAASGFTFSDYYMSWIRQAPGKGLEWVSYISSSGSTRDYADSVKGRFTISRDNAKNSLYLQMNSLRAEDTAVYYCVRDGVETTFYYYYYGMDVWGQGTTVTVSSASTKGPSVFPLAPCSRSTSESTAALGCLVKDYFPEPVTVSWNSGALTSGVHTFPAVLQSSGLYSLSSVVTVPSSNFGTQTYTCNVDHKPSNTKVDKTVERKCCVECPPCPAPPVAGPSVFLFPPKPKDTLMISRTPEVTCVVVDVSHEDPEVQFNWYVDGVEVHNAKTKPREEQFNSTFRVVSVLTVVHQDWLNGKEYKCKVSNKGLPAPIEKTISKTKGQPREPQVYTLPPSREEMTKNQVSLTCLVKGFYPSDIAVEWESNGQPENNYKTTPPMLDSDGSFFLYSKLTVDKSRWQQGNVFSCSVMHEALHNHYTQKSLSLSPGK
light: DIQMTQSPSSLSASVGDRVTFTCRASQDIRRDLGWYQQKPGKAPKRLIYAASRLQSGVPSRFSGSGSGTEFTLTISSLQPEDFATYYCLQHNNYPRTFGQGTEVEIIRTVAAPSVFIFPPSDEQLKSGTASVVCLLNNFYPREAKVQWKVDNALQSGNSQESVTEQDSKDSTYSLSSTLTLSKADYEKHKVYACEVTHQGLSSPVTKSFNRGEC
B2: the “binding to COS7 IGF-IR” value with COS7 IGF-IR is on record as “able to bind”. Also, the “binding to human IGF-IR” value with IGF-IR [4] is “able to bind”. Besides, the “binding to Rhesus IGF-IR” value in the assay with Rhesus IGF-IR was “able to bind”. For the same molecule, the “binding to guinea pig IGF-IR” value in the assay on guinea pig IGF-IR was “not”. In the assay on rabbit IGF-IR, the “binding to rabbit IGF-IR” value is “not”. In addition, the “binding to canine IGF-IR” value with canine IGF-IR is “not”. The “binding to marmoset IGF-IR” value with IGF-IR from the marmoset was “not”. This molecule also came in with a Kd in assay [3] of 7.37 nM.

B3: 4.17.3: human IgG2κ monoclonal antibody specific for IGF-IR from hybridoma 4.17.3 (ATCC PTA-2793); named as activating antibody (antibody, V domains shown)
VH: PGLVKPSETLSLTCTVSGGSISSYYWSWIRQPPGKGLEWIGYIYYSGSTNYNPSLKSRVTISVDTSKNQFSLKLSSVTAADTAVYYCARTYSSSFYYYGMDVWGQGTTVTVSS
VL: GDRVTITCRASQSISTFLNWYQQKPGKAPKLLIHVASSLQGGVPSRFSGSGSGTDFTLTISSLQPEDFATYYCQQSYNAPLTFGGGTKVEIK
As for B3, the Kd in assay [3] came out at 13 nM. This lies in the double-digit nanomolar range.
